Data from publication PMC4376794, “Production of Functional Human Vitamin A Transporter/RBP Receptor (STRA6) for Structure Determination” (PLoS ONE, 2015).

Columns and labels:
[1] = biological target: T1, retinol binding protein (His-RBP) (UniProt P02753 19-201); test: SPR; holo-RBP (retinol-loaded, 6.9-219.3 uM) flowed over STRA6-GFP captured by its c-Myc tag on immobilised anti-c-Myc antibody (CM5, Biacore 3000); anti-HA antibody reference cell; room temperature; steady-state responses fitted to one site plus a linear low-affinity component; triplicate; settings: both partners purified
[2] = biological target: T1, retinol binding protein (His-RBP); test: SPR; apo-RBP (6.9-219.3 uM) flowed over STRA6-GFP captured by its c-Myc tag on immobilised anti-c-Myc antibody (CM5, Biacore 3000); anti-HA antibody reference cell; room temperature; steady-state responses fitted to one site plus a linear low-affinity component; triplicate; settings: both partners purified

B1: STRA6-GFP-c-Myc-His6 (STRA6-HRV3C-eGFP-Myc-His6) (receptor, human)
chain: MSSQPAGNQTSPGATEDYSYGSWYIDEPQGGEELQPEGEVPSCHTSIPPGLYHACLASLSILVLLLLAMLVRRRQLWPDCVRGRPGLPSPVDFLAGDRPRAVPAAVFMVLLSSLCLLLPDEDALPFLTLASAPSQDGKTEAPRGAWKILGLFYYAALYYPLAACATAGHTAAHLLGSTLSWAHLGVQVWQRAECPQVPKIYKYYSLLASLPLLLGLGFLSLWYPVQLVRSFSRRTGAGSKGLQSSYSEEYLRNLLCRKKLGSSYHTSKHGFLSWARVCLRHCIYTPQPGFHLPLKLVLSATLTGTAIYQVALLLLVGVVPTIQKVRAGVTTDVSYLLAGFGIVLSEDKQEVVELVKHHLWALEVCYISALVLSCLLTFLVLMRSLVTHRTNLRALHRGAALDLSPLHRSPHPSRQAIFCWMSFSAYQTAFICLGLLVQQIIFFLGTTALAFLVLMPVLHGRNLLLFRSLESSWPFWLTLALAVILQNMAAHWVFLETHDGHPQLTNRRVLYAATFLLFPLNVLVGAMVATWRVLLSALYNAIHLGQMDLSLLPPRAATLDPGYYTYRNFLKIEVSQSHPAMTAFCSLLLQAQSLLPRTMAAPQDSLRPGEEDEGMQLLQTKDSMAKGARPGASRGRARWGLAYTLLHNPTLQVFRKTALLGANGAQP
notes: human STRA6, full length (transcript variant 2); In SPR it was held by its C-terminal c-Myc tag on an anti-c-Myc antibody; also called vitamin A transporter/RBP receptor; RBP receptor; source: Pichia pastoris KM71H (pPICZ-A); on whole cells, in broken cells, and purified (solubilised in C12E9, Ni-NTA with exchange to DDM, size exclusion); not shown: GFP (eGFP), C-terminal, kept; c-Myc, …
[1]
  Kd: 19.4 µM
[2]
  Kd: 22.4 µM
